Sequences and labels used below:
T1: PF3D7_0420300 D1 (Plasmodium falciparum, UniProt Q8I1N6 1956-2015)
T1 sequence: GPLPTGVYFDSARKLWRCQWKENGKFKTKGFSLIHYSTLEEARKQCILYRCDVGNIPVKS

B1: CACACA_site9081 (dsDNA)
DNA 1: TTTTACTAAATATATACACACATTATACATATATAT
DNA 2: ATATATATGTATAATGTGTGTATATATTTAGTAAAA
B2: CACACA_site8191 (dsDNA)
DNA 1: TATTATATTATACATACACACCCATATAATATGTTT
DNA 2: AAACATATTATATGGGTGTGTATGTATAATATAATA
B3: CACACA_site8689 (dsDNA)
DNA 1: AAAAAAAAAACACGCGCACACACACCCACCCACCCA
DNA 2: TGGGTGGGTGGGTGTGTGTGCGCGTGTTTTTTTTTT
B4: CACACA_site2997 (dsDNA)
DNA 1: CATAATTATGCAATTGCACACAACTATCATTTTTTT
DNA 2: AAAAAAATGATAGTTGTGTGCAATTGCATAATTATG
B5: CACACA_site8579 (dsDNA)
DNA 1: AATATTTATAAATTTACACACACACCGGTGAACATA
DNA 2: TATGTTCACCGGTGTGTGTGTAAATTTATAAATATT
B6: CACACA_site3513 (dsDNA)
DNA 1: CAATTACGCAGGAATGCACACAATAATAAAAAAAAT
DNA 2: ATTTTTTTTATTATTGTGTGCATTCCTGCGTAATTG
B7: CACACA_site7096 (dsDNA)
DNA 1: TACCTATATACATACACACACATATAACCAATGTAG
DNA 2: CTACATTGGTTATATGTGTGTGTATGTATATAGGTA
B8: CACACA_site2570 (dsDNA)
DNA 1: AAAAGATAATTATGCACACACACACCCCCACCCAAC
DNA 2: GTTGGGTGGGGGTGTGTGTGTGCATAATTATCTTTT
B9: CACACA_site1453 (dsDNA)
DNA 1: ATATTATGTGATTGTGCACACTGGAGATTTTTTTTA
DNA 2: TAAAAAAAATCTCCAGTGTGCACAATCACATAATAT
B10: CACACA_site3328 (dsDNA)
DNA 1: TGTATTTATAGCAATACACACATAACAATAAATATA
DNA 2: TATATTTATTGTTATGTGTGTATTGCTATAAATACA
B11: CACACA_site3424 (dsDNA)
DNA 1: GATGAGGACAAACACACACACATAAGTTGATACATA
DNA 2: TATGTATCAACTTATGTGTGTGTGTTTGTCCTCATC
B12: CACACA_site6268 (dsDNA)
DNA 1: AACATATTTATATACACACACATATTTATATGAAAT
DNA 2: ATTTCATATAAATATGTGTGTGTATATAAATATGTT
B13: CACACA_site2478 (dsDNA)
DNA 1: TAAACAGACATATAAACACACATATAAACCGACATA
DNA 2: TATGTCGGTTTATATGTGTGTTTATATGTCTGTTTA
B14: CACACA_site7392 (dsDNA)
DNA 1: GGTTCATATCTTAACACACACATACATATTATAGAT
DNA 2: ATCTATAATATGTATGTGTGTGTTAAGATATGAACC
B15: CACACA_site4213 (dsDNA)
DNA 1: GGAATAGTAATATATACACACAAATACAGATATATA
DNA 2: TATATATCTGTATTTGTGTGTATATATTACTATTCC
B16: CACACA_site55 (dsDNA)
DNA 1: CTCAATATTATTACTACACACAAATTAATATTTTCC
DNA 2: GGAAAATATTAATTTGTGTGTAGTAATAATATTGAG
B17: CACACA_site7314 (dsDNA)
DNA 1: CAATGTTAACATATTACACACATATGTATTTATAAC
DNA 2: GTTATAAATACATATGTGTGTAATATGTTAACATTG
B18: CACACA_site2544 (dsDNA)
DNA 1: TATTATTTATTATATGCACACATCGAACTATTATTT
DNA 2: AAATAATAGTTCGATGTGTGCATATAATAAATAATA
B19: CACACA_site4786 (dsDNA)
DNA 1: AATATACACCCGTGTACACAAATATTTACAAAACGT
DNA 2: ACGTTTTGTAAATATTTGTGTACACGGGTGTATATT
B20: CACACA_site8576 (dsDNA)
DNA 1: TTCTTACATAAAATATCACACACATAAAAAAACAAT
DNA 2: ATTGTTTTTTTATGTGTGTGATATTTTATGTAAGAA
B21: CACACA_site3144 (dsDNA)
DNA 1: ATAAAATATATGAAGACACACATAACATCATATTTT
DNA 2: AAAATATGATGTTATGTGTGTCTTCATATATTTTAT
B22: CACACA_site2379 (dsDNA)
DNA 1: ACATAGCAATGTTTCACACACAAGAAAAAATACAAT
DNA 2: ATTGTATTTTTTCTTGTGTGTGAAACATTGCTATGT
B23: CACACA_site377 (dsDNA)
DNA 1: AGGTAGAAAAAAGACACACACATTATGTATATATAT
DNA 2: ATATATATACATAATGTGTGTGTCTTTTTTCTACCT
B24: CACACA_site2768 (dsDNA)
DNA 1: TAGAACAAATAAAACACACACATATATATATATATG
DNA 2: CATATATATATATATGTGTGTGTTTTATTTGTTCTA
B25: CACACA_site4960 (dsDNA)
DNA 1: TTAATAACAAAATAAACACACATATATAAATACCCA
DNA 2: TGGGTATTTATATATGTGTGTTTATTTTGTTATTAA
B26: CACACA_site254 (dsDNA)
DNA 1: TTTAATTATAAGATAACACACAAAAAAAATAAAATA
DNA 2: TATTTTATTTTTTTTGTGTGTTATCTTATAATTAAA
B27: CACACA_site8829 (dsDNA)
DNA 1: TATGTAAAAAATTTAACACACACATATATATATATA
DNA 2: TATATATATATATGTGTGTGTTAAATTTTTTACATA
B28: CACACA_site1517 (dsDNA)
DNA 1: TATGAAATTATAATTACACACAGGAAAATAAAATGT
DNA 2: ACATTTTATTTTCCTGTGTGTAATTATAATTTCATA
B29: CACACA_site5943 (dsDNA)
DNA 1: AAATAAATATATAATACACACAAAAATATAAAATGG
DNA 2: CCATTTTATATTTTTGTGTGTATTATATATTTATTT
B30: CACACA_site407 (dsDNA)
DNA 1: ATATTATATTATATAACACACATTTTTCATAACACT
DNA 2: AGTGTTATGAAAAATGTGTGTTATATAATATAATAT
B31: CACACA_site6321 (dsDNA)
DNA 1: AAATTAATTAAATATACACACATATATAGATATATA
DNA 2: TATATATCTATATATGTGTGTATATTTAATTAATTT
B32: CACACA_site1730 (dsDNA)
DNA 1: AAAATTTTTTACTTTACACACATTTTGTATATTTTG
DNA 2: CAAAATATACAAAATGTGTGTAAAGTAAAAAATTTT
B33: CACACA_site1529 (dsDNA)
DNA 1: AACTATAAAAAAAATACACACATTACCAAAAATATA
DNA 2: TATATTTTTGGTAATGTGTGTATTTTTTTTATAGTT
B34: CACACA_site3507 (dsDNA)
DNA 1: TATATAAACCCGTACACACACATATATGTATATATA
DNA 2: TATATATACATATATGTGTGTGTACGGGTTTATATA
B35: CACACA_site3334 (dsDNA)
DNA 1: ATTTTATTTTTTCACACACACATATATATATATATA
DNA 2: TATATATATATATATGTGTGTGTGAAAAAATAAAAT
B36: CACACA_site1962 (dsDNA)
DNA 1: TTTTTAACATATCATACACACAACAACTTTTTATAG
DNA 2: CTATAAAAAGTTGTTGTGTGTATGATATGTTAAAAA
B37: CACACA_site2604 (dsDNA)
DNA 1: GAAAATATTACATACACGCACACATTAATATATTTA
DNA 2: TAAATATATTAATGTGTGCGTGTATGTAATATTTTC
B38: CACACA_site2985 (dsDNA)
DNA 1: AATATTTATAAAGACACACAAACAAAAAGGATAAAA
DNA 2: TTTTATCCTTTTTGTTTGTGTGTCTTTATAAATATT
B39: CACACA_site5414 (dsDNA)
DNA 1: AACAAGTTGCATGGTGCACACATGTATTTATATCTA
DNA 2: TAGATATAAATACATGTGTGCACCATGCAACTTGTT
B40: CACACA_site8016 (dsDNA)
DNA 1: TTAGGTAGAAAAAAGACACACACATTATATATATAT
DNA 2: ATATATATATAATGTGTGTGTCTTTTTTCTACCTAA
B41: CACACA_site337 (dsDNA)
DNA 1: AGCAGACACCAACACACACACATATATATATATATA
DNA 2: TATATATATATATATGTGTGTGTGTTGGTGTCTGCT

The target in the series is T1, PF3D7_0420300 D1. The series is described as follows: gcPBM; about 25 ug protein; PBS, 1% milk, 0.2 mg/ml BSA, salmon testes DNA, 0.03% Triton X-100. The conditions noted are these: tags: N-terminal GST (pGEX-4T-1), kept; label: surface-attached array probe.
For B1, the binding signal was 9.49 ln median PBM intensity, better of two orientations.
On to B2, for which the binding signal is 9.49 ln median PBM intensity, better of two orientations.
On to B3, for which the binding signal is 10.7 ln median PBM intensity, better of two orientations.
As for B4, the figure is 9.61 ln median PBM intensity, better of two orientations.
For B5, the binding signal is 9.89 ln median PBM intensity, better of two orientations.
For the molecule B6, the binding signal is 9.51 ln median PBM intensity, better of two orientations.
On to B7, for which the binding signal was 9.88 ln median PBM intensity, better of two orientations.
Consider B8, for which the binding signal is 10.8 ln median PBM intensity, better of two orientations.
For the molecule B9, the binding signal was 9.58 ln median PBM intensity, better of two orientations.
As for B10, the binding signal was 9.56 ln median PBM intensity, better of two orientations.
As for B11, the binding signal is 9.89 ln median PBM intensity, better of two orientations.
Take B12: the binding signal was 9.85 ln median PBM intensity, better of two orientations.
For the molecule B13, the binding signal was 9.92 ln median PBM intensity, better of two orientations.
Regarding B14, the binding signal is 9.92 ln median PBM intensity, better of two orientations.
As for B15, the figure is 9.83 ln median PBM intensity, better of two orientations; as for B16, 9.54 ln median PBM intensity, better of two orientations; as for B17, 9.55 ln median PBM intensity, better of two orientations.
For B18, the binding signal was 9.56 ln median PBM intensity, better of two orientations.
For the molecule B19, the binding signal was 9.51 ln median PBM intensity, better of two orientations.
The figure for B20 is 9.93 ln median PBM intensity, better of two orientations.
Consider B21, for which the binding signal is 9.52 ln median PBM intensity, better of two orientations.
The figure for B22 is 9.85 ln median PBM intensity, better of two orientations; for B23 it is 9.87 ln median PBM intensity, better of two orientations.
As for B24, the figure is 9.9 ln median PBM intensity, better of two orientations; as for B25, 9.9 ln median PBM intensity, better of two orientations; as for B26, 9.6 ln median PBM intensity, better of two orientations.
Turning to B27, the binding signal is 9.57 ln median PBM intensity, better of two orientations.
As to B28, the binding signal was 9.83 ln median PBM intensity, better of two orientations.
B29: the binding signal was 9.84 ln median PBM intensity, better of two orientations.
With B30, the binding signal is 9.58 ln median PBM intensity, better of two orientations.
As for B31, the figure is 9.5 ln median PBM intensity, better of two orientations; as for B32, 9.87 ln median PBM intensity, better of two orientations.
For B33, the binding signal was 9.86 ln median PBM intensity, better of two orientations.
The figure for B34 is 9.93 ln median PBM intensity, better of two orientations; for B35 it is 9.91 ln median PBM intensity, better of two orientations.
In the case of B36, the binding signal was 9.54 ln median PBM intensity, better of two orientations.
With B37, the binding signal is 9.59 ln median PBM intensity, better of two orientations.
As for B38, the figure is 9.84 ln median PBM intensity, better of two orientations; as for B39, 9.53 ln median PBM intensity, better of two orientations; as for B40, 9.94 ln median PBM intensity, better of two orientations.
Take B41: the binding signal is 9.86 ln median PBM intensity, better of two orientations.
